From patent publication US20200369764A1 (INNATE PHARMA, published 2020) come the findings set out here.

The target of one assay is Human Siglec-7 (human) (UniProt Q9Y286). Briefly: flow cytometry, fresh purified human NK cells (CD3-/CD56+), isotype control plot. For orientation: Flow cytometry measures light scatter and fluorescence of single cells or particles in a stream.
In assay [1] the target is T1, Human Siglec-9 (human, UniProt Q9Y336 18-463).
T1 construct: on transfected CHO cells, YTS Siglec-9* cells, or native on primary NK cells and moDC (see assay); also called huSiglec-9; CD329
T1 sequence (Q9Y336 18-463): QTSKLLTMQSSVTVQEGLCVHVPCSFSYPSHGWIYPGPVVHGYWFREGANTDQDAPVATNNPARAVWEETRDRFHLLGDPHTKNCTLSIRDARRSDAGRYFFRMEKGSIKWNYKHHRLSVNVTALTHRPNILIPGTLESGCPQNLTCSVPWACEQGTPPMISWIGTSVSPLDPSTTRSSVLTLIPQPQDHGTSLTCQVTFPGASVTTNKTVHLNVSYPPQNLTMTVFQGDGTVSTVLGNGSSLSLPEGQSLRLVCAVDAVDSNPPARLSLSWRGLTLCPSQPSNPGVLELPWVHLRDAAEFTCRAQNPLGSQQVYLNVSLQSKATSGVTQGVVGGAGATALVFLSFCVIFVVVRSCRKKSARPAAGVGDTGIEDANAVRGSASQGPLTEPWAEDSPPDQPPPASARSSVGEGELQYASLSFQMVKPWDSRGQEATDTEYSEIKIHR
Described as above.

For assay [2], the target named is T1, Human Siglec-9. Nature of the assay: flow cytometry titration on moDC, neuraminidase-treated against untreated. As to the method: moDC were desialylated for 2 hours with 25 mU neuraminidase (Roche Diagnostics).
Binding on moDCs and neuraminidase treated moDCs was tested in a titration experiment by flow cytometry. Cells were incubated 1h in Staining Buffer (SB) with primary antibodies at 10 μg/ml and a series of dilution of 1:10. They were washed two times with SB, then incubated 30 min with a Goat F(ab′)² Anti-Human IgG (Fc) PE (Jackson ImmunoResearch), and washed twice with SB.

Human Siglec-7 (human), sequence (Q9Y286 19-467): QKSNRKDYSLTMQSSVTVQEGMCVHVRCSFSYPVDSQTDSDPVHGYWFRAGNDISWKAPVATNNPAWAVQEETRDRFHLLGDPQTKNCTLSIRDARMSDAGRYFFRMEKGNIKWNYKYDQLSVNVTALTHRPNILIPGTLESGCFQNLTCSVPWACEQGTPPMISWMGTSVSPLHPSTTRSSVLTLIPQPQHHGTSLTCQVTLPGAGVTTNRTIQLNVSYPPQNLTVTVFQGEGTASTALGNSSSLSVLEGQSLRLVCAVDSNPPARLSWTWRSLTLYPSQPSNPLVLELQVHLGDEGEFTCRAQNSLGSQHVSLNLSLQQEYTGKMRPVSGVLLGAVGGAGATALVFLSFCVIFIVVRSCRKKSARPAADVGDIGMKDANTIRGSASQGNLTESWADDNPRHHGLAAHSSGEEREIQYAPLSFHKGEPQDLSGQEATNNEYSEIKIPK

With Isotype control - APC (antibody), in the assay with Human Siglec-7 (human), the % of NK cells in Q1 (APC positive, PE negative) is 0.975%; the % of NK cells in Q2 (APC positive and PE positive) amounted to 0.34%.
As to Isotype control - PE (antibody), in the assay with Human Siglec-9 [1], the % of NK cells in Q2 (APC positive and PE positive) stood at 0.34%; the % of NK cells in Q3 (PE positive, APC negative) is 2.54%.

B1: mAbA (antibody, V domains shown)
VH: QVQLQQPGAELVKPGSPVKLSCKASYFTFTSYWMHWVRQRPGQGLEWIGEINPSNGHTNYNEKFESKATLTVDRSSSTAYMQLSSLTSEDSAVFYCANGVESYDFDDALDYWGQGTSVTVSS
VL: DIQMTQTTSSLSASLGDRVTISCRASQDINNYLNWYQQKPDGTIKLLIYYTSRLHSGVPSRFSGSGSGTDYSLTINNLEQEDIATYFCQQGNTLPFTFGGGTKLEIK
notes: chimeric human IgG1, heavy chain N297Q (Kabat EU numbering)
Regarding B1, the “fold enhancement of EC50 on moDC after neuraminidase treatment” value (“fold enhancement of EC50 on moDC” below) with Human Siglec-9 [2] came out at 10 fold.

B2: mAbD (antibody, V domains shown)
VH: QIQLVQSGPELKKPGETVKISCKASGYTFTDYSMHWVKQAPGKGLKWMGWIITETGEPTYADDFRGRFAFSLETSANTAYLQINNLKNEDTATYFCARDFDGYWGQGTTLTVSS
VL: DILMTQSPASLSASVGETVTITCRASENIYSYLAWYQQKRGKSPQFLVYNAKTLTEGVPSRFRGSGSGTQFSLKINSLQPEDFGTYYCQHHYGFPWTFGGGTKLEIK
notes: as for B1
Take B2: the “fold enhancement of EC50 on moDC” value with Human Siglec-9 [2] was 10 fold.

B3: mAbC (antibody, V domains shown)
VH: QIQLVQSGPELKKPGETVKISCKASGYTFTNYEMNWVKEAPGKGLKWMGWINTYTGESTYADDFKGRFAFSLETSASTVYLQINNLKDEDVATYFCVRDDYGRSYGFAYWGQGTLVTVSA
VL: NIVLTQSPASLTVSLGQRANISCRASESVDSYGNSFMHWYQQKPGQPPKLLIYLASKLESGVPARFSGSGSRTDFTLTIDPVETDDAATYYCHQNNEDPPWTFGGGTKLEIK
notes: as for B1
Take B3: the “fold enhancement of EC50 on moDC” value with Human Siglec-9 [2] is 10 fold.
